US10889629B2, “Transfected T-cells and T-cell receptors for use in immunotherapy against cancers” (IMMATICS BIOTECHNOLOGIES GMBH, priority 2016, dated 2021)
“Also recorded” adds a separate entry of the source.

Columns and labels:
[1] = system: HLA-A*0201-positive PBMCs and HLA-A*0201/Kb transgenic mice; conditions: in vitro from PBMCs and in HLA-A*0201/Kb transgenic mice; cited from earlier work
HLA-A*0201 molecule = HLA-A*0201 molecule (Homo sapiens, UniProt P04439, D140Y/D185E/D98H/E176V/E277Q/G131W/G231S/I119V/I121R/I166T/I218V/L300P/L318F/N151K/N90K/P208A/P217A/Q86G/Q94H/R138H/R169H/T345S); conditions: cited from earlier work
MHC/NYESO1-001 tetramer = experiment: Tetramer staining of TCR-RNA-electroporated CD8+ T-cells, MHC/NYESO1-001 control tetramer; type: binding, human
From the text: (§1) FIG. 8 show MHC/MAG-003 tetramer or MHC/NYESO1-001 tetramer staining of CD8+ T-cells electroporated with alpha and beta chain RNA of TCRs R7P1 D5, R20P1H7 and R10P2G12 (Table 2), respectively. CD8+ T-cells electroporated with RNA of 1G4 TCR that specifically binds to MHC/NYESO1-001 complex and mock electroporated CD8+ T-cells served as controls.
(§2) T-cell activation was further confirmed using a tetramer staining technique to detect MHC/MAG-003-binding activated cytotoxic T-cells. As shown in FIG. 8 and Table 11, a higher percentage of TCR-expressing CD8+ T-cells were stained positive fluorescent-labeled MHC/MAG-003 tetramer than that with MHC/NYESO1-001 control tetramer or mock control. […] The alpha and beta chains of TCR 1G4 are shown in SEQ ID NO:89 and 90, respectively: […]

[2] = system: HLA-A*02 positive cell types from healthy tissues; experiment: Safety: IFN-γ release upon co-culture with primary and iPSC-derived cell types from healthy tissues; type: cell-based, human; conditions: E:T ratio 1:1, 20 h, ELISA, normalized
From the text: FIG. 13 T cells transfected with RNA coding for TCR R7P1 D5, R10P2G12, R20P1H7, mock or the control TCR 1G4 (SEQ ID NO:X) were co-cultured with different primary human healthy tissue cells (see table 13 for abbreviations), the target negative tumor cell line MCF-7 and the MAGEA4- and NY-ESO1-positive cell lines A-375 and NCI-H1755. TCRs R7P1D5, R10P2G12, R20P1H7 and 1G4 expression in T cells was achieved by electroporation using an RNA vector. […] E:T ratio 1:1, 20,000 cells each, mean of IFN-γ release after 20 h from replicates is shown as measured by ELISA. Error bars indicate standard deviations. Results were normalized by subtraction of IFN-γ release from TCR-transfected T cells only and IFN-γ release due to co-culture of Target cells and T cells not expressing TCR of interest.
(§3) TCRs of interest were expressed in human T cells via RNA electroporation and the T cells were assessed for IFN-γ release after co-culture with different target cells, such as T2 cells loaded with different peptides as well as tumor cell lines and primary cells from healthy tissues. T-cell activation data are shown in absolute IFN-γ levels or a normalized way as indicated below.
(§4) Efficacy of CD8+ T cells expressing TCRs R7P1 D5, R10P2G12 and R20P1H7 was determined by T cell activation studies (IFN-γ release) using different tumor cell lines as target cells. The characterization of the safety profile of TCRs of interest was approached by testing the potential activation of TCR-expressing T cells upon co-culture with isolated primary cell types from healthy tissues and induced pluripotent stem cell (iPSC)-derived cell types from HLA-A*02-positive donors (Table 13). Cell types were selected in a manner to cover most of the critical organs like e.g. brain, heart and liver and different cell types as epithelium, endothelium or smooth muscle. Tumor cell lines were analyzed side-by-side as positive and negative controls.
(§5) Normalization Method for IFNγ Release: Meannorm(TCRoi;co)=[mean(TCRoi;co)−mean(TCRoi;effector only)]−[mean(mock;co)−mean(mock;effector only)]
The respective CVnorm was calculated: CVnorm(TCRoi;co)=[CV(TCRoi;co)^2+CV(TCRoi;effector only)^2+CV(mock;co)^2+CV(mock;effector only)^2]^[½] TCRoi=effector cells expressing TCR of interest Mock=effector cells without exogenous TCR expression Co=effector cells co-cultured with target cells Effector only=effector cells not co-cultured Mean(norm)=mean IFNγ release (normalized) CV(norm)=coefficient of variation (normalized) Results: […]

[3] = system: human non-small cell cancer cell line, H1755 (NCI-H1755); experiment: IFNγ release, TCR-expressing CD8+ T-cells co-incubated with H1755; type: cell-based; conditions: Example 6, NCI-H1755 expressing HLA-A*02 and MAGEA4
Method: (§6) To determine efficacy of T-cells expressing TCRs described herein, primary CD8+ T-cells electroporated with RNA of the TCRs R7P1 D5, R20P1H7 and R10P2G12 were co-incubated with different human cancer cell lines, e.g., A-375 (human melanoma cell line, which is positive for HLA-A2 and MAG-003 expression), T98G (human glioblastoma cell line, which is HLA-A2-positive and MAG-003-negative), and SK-BR-3 (human breast cancer cell line, which is HLA-A2-negative and MAG-003-negative), followed by IFNγ release assay.
as §3, §4, §5

[4] = system: SK-BR-3 (human breast cancer cell line, HLA-A2-negative and MAG-003-negative); experiment: IFNγ release, TCR-expressing CD8+ T-cells co-incubated with SK-BR-3; type: cell-based; conditions: Example 4, SK-BR-3, compared with effector cell only control
Method: as §6

[5] = system: A-375 (human melanoma cell line, positive for HLA-A2 and MAG-003 expression); experiment: IFNγ release, TCR-expressing CD8+ T-cells co-incubated with A-375; type: cell-based
Method: as §6, §3, §4, §5

MHC/MAG-003 tetramer = MHC/MAG-003 tetramer (Homo sapiens, UniProt P04439+P43358, D140Y/D185E/D98H/E176V/E277Q/G131W/G231S/I119V/I121R/I166T/I218V/N151K/N90K/P208A/P217A/Q86G/Q94H/R138H/R169H); experiment: Tetramer staining of TCR-RNA-electroporated CD8+ T-cells, MHC/MAG-003 tetramer; type: binding
From the text: as §1, §2

[6] = system: T98G (human glioblastoma cell line, HLA-A2-positive and MAG-003-negative); experiment: IFNγ release, TCR-expressing CD8+ T-cells co-incubated with T98G; type: cell-based; conditions: Example 4, T98G, compared with effector cell only control
Method: as §6

MHC/MAG-003 complex = target: T1, MHC/MAG-003 complex (Homo sapiens, UniProt P04439+P43358, D140Y/D185E/D98H/E176V/E277Q/G131W/G231S/I119V/I121R/I166T/I218V/L300P/L318F/N151K/N90K/P208A/P217A/Q86G/Q94H/R138H/R169H/T345S); experiment: IFN-γ release assay: TCR-RNA-electroporated CD8+ T-cells co-incubated with peptide-loaded target cells; type: cell-based
T1 construct: endogenous in cells
Method: In another aspect, to obtain T-cells expressing TCRs of the present description, TCR RNAs were synthesized by techniques described in the art, e.g., in vitro transcription systems. The in vitro-synthesized TCR RNAs were then introduced into primary CD8+ T-cells obtained from healthy donors by electroporation to re-express tumor specific TCR-alpha and/or TCR-beta chains.
To determine specificity and affinity of TCRs, the transformed CD8+ T-cells were co-incubated with MAG-003-loaded target cells or with target cells loaded with homologous but unrelated peptide RABGAP1L-001 (SEQ ID NO:91), AXIN1-001 (SEQ ID NO:92), ANO5-001 (SEQ ID NO:93), TPX2-001 (SEQ ID NO:94), SYNE3-001 (SEQ ID NO:95), MIA3-001 (SEQ ID NO:96), HERC4-001 (SEQ ID NO:97), PSME2-001 (SEQ ID NO:98), HEATR5A-001 (SEQ ID NO:99) or CNOT1-003 (SEQ ID NO:100) or control peptide NYESO1-001 (SEQ ID NO:101), followed by IFN-γ release assay. Unloaded target cells and CD8+ T-cells alone served as controls. IFN-γ secretion from CD8+ T-cells is indicative of T-cell activation with cytotoxic activity.
As shown in FIGS. 5-7 all primary CD8+ T-cells transformed with TCRs of the present disclosure, after co-incubation with MAG-003-loaded target cells, released much higher levels of IFN-γ than that stimulated by unrelated peptide-loaded target cells, and the controls.

MHC/NYESO1-001 complex = experiment: Activation of 1G4-transformed CD8+ T-cells by NYESO1-001-loaded target cells; type: cell-based, human
[7] = system: NYESO1 expressing HLA-A*02 positive tumor cell lines; experiment: IFN-γ release of 1G4-expressing CD8+ T cells with NYESO1 expressing tumor cell lines; type: cell-based, human; conditions: Example 6
Method: as §3, §4

**Q.** For “KVLEHVVRV (listed as Homo sapiens) [MAG-003]”, which “induction of peptide-specific CTLs” value [1] is on record?
**A.** Its value is “elicits peptide-specific CTLs”.

**Q.** What about the “binding affinity and stability towards HLA-A*0201 molecule” value (HLA-A*0201 molecule) of the same molecule?
**A.** Its value is “potent binding affinity and stability”.

**Q.** Which “induction of peptide-specific CTLs” value [1] does the source give for “YLLEHVVRL (listed as Homo sapiens) [p286-1Y2L9L]” here?
**A.** The value was “showed the capability to induce specific CTLs”.

**Q.** What about the “binding affinity and stability towards HLA-A*0201 molecule” value (HLA-A*0201 molecule) of the same molecule?
**A.** The value was “potent binding affinity and stability”.

B1: R20P1H7: TCR, alpha chain SEQ ID NO:39 and beta chain SEQ ID NO:47, MAG-003-specific (protein, listed as Homo sapiens)
alpha: MEKMLECAFIVLWLQLGWLSGEDQVTQSPEALRLQEGESSSLNCSYTVSGLRGLFWYRQDPGKGPEFLFTLYSAGEEKEKERLKATLTKKESFLHITAPKPEDSATYLCAVQGENSGYSTLTFGKGTMLLVSPDIQNPDPAVYQLRDSKSSDKSVCLFTDFDSQTNVSQSKDSDVYITDKTVLDMRSMDFKSNSAVAWSNKSDFACANAFNNSIIPEDTFFPSPESSCDVKLVEKSFETDTNLNFQNLSVIGFRILLLKVAGFNLLMTLRLWSS
beta: MGPQLLGYVVLCLLGAGPLEAQVTQNPRYLITVTGKKLTVTCSQNMNHEYMSWYRQDPGLGLRQIYYSMNVEVTDKGDVPEGYKVSRKEKRNFPLILESPSPNQTSLYFCASSLGPGLAAYNEQFFGPGTRLTVLEDLKNVFPPEVAVFEPSEAEISHTQKATLVCLATGFYPDHVELSWWVNGKEVHSGVSTDPQPLKEQPALNDSRYCLSSRLRVSATFWQNPRNHFRCQVQFYGLSENDEWTQDRAKPVTQIVSAEAWGRADCGFTSESYQQGVLSATILYEILLGKATLYAVLVSALVLMAMVKRKDSRG
**Q.** What does the source list for B1?
**A.** % NYESO1-001 TET-positive primary CD8+ T-cells (MHC/NYESO1-001 tetramer): 0.87%; T-cell activation (IFN-γ release) by healthy tissue cells [2]: no activation was observed; also recorded: did not lead to significant TCR-mediated recognition and T-cell activation; T-cell activation (IFN-γ release) [3]: activity; IFNγ release [4]: basal levels of IFNγ release; IFNγ release ([5]; Example 4, A-375, HLA-A2-positive and MAG-003-positive): IFNγ release was observed; T-cell activation (IFN-γ release) ([5]; Example 6, A-375 expressing HLA-A*02 and MAGEA4): activity; % MAG-003 TET-positive primary CD8+ T-cells (MHC/MAG-003 tetramer): 5.73%; IFNγ release [6]: basal levels of IFNγ release; IFNγ (MHC/MAG-003 complex; CD8+ T-cells electroporated with TCR RNA, co-incubation with MAG-003-loaded target cells): 200 to 900 pg/mL; EC50 (MHC/MAG-003 complex; target peptide (MAG-003) titration, IFN-γ release): ~10 nM

B2: 1G4: control TCR known to bind specifically to MHC/NYESO1-001 complex; alpha and beta chains SEQ ID NO:89 and 90 (protein, listed as Homo sapiens)
alpha: METLLGLLILWLQLQWVSSKQEVTQIPAALSVPEGENLVLNCSFTDSAIYNLQWFRQDPGKGLTSLLLIQSSQREQTSGRLNASLDKSSGRSTLYIAASQPGDSATYLCAVRPTSGGSYIPTFGRGTSLIVHPYIQNPDPAVYQLRDSKSSDKSVCLFTDFDSQTNVSQSKDSDVYITDKTVLDMRSMDFKSNSAVAWSNKSDFACANAFNNSIIPEDTFFPSPESSCDVKLVEKSFETDTNLNFQNLSVIGFRILLLKVAGFNLLMTLRLWSS
beta: MSIGLLCCAALSLLWAGPVNAGVTQTPKFQVLKTGQSMTLQCAQDMNHEYMSWYRQDPGMGLRLIHYSVGAGITDQGEVPNGYNVSRSTTEDFPLRLLSAAPSQTSVYFCASSYVGNTGELFFGEGSRLTVLEDLKNVFPPEVAVFEPSEAEISHTQKATLVCLATGFYPDHVELSWWVNGKEVHSGVSTDPQPLKEQPALNDSRYCLSSRLRVSATFWQNPRNHFRCQVQFYGLSENDEWTQDRAKPVTQIVSAEAWGRADCGFTSESYQQGVLSATILYEILLGKATLYAVLVSALVLMAMVKRKDSRG
**Q.** What does the source list for B2?
**A.** T-cell activation (IFN-γ release) by healthy tissue cells [2]: not towards the indicated panel of healthy tissue cells; T-cell activation (MHC/NYESO1-001 complex): readily activated; T-cell reactivity (IFN-γ release) [7]: reactive
